Key:
TNF-alpha [1] = assay: Biacore 3000 SPR; Fc fusion loaded into the flow cell, exposed to TNF
TNF-alpha [2] = assay: cell-based or functional assay

KD (TNF-alpha), normalized to TNFR-h(1)Fc wt (fold of wt (normalized)) (TNF-alpha [1])	IC50 (WEHI Assay), normalized to TNFR-h(1)Fc wt (fold of wt (normalized)) (TNF-alpha [2])	Substance
4.4	1.1	D47N S202N TNFR2-h(1)Fc (Fc fusion)
1.6	1.9	D47N TNFR2-h(1)Fc (Fc fusion)
2.6	1.6	D47N/E155N TNFR2-h(1)Fc (Fc fusion)
55	3	D47N/G253N TNFR2-h(1)Fc (Fc fusion)
3.6	0.57	E155N G253N TNFR2-h(1)Fc (Fc fusion)
1	0.25	E155N S202N G253N TNFR2-h(1)Fc (Fc fusion)
1.05	0.23	S202N G253N TNFR2-h(1)Fc (Fc fusion)
0.33	0.29	T203N P205S TNFR2-h(1)Fc (Fc fusion)
0.78	0.25	T222N TNFR2-h(1)Fc (Fc fusion)

— patent publication US20130084291A1
